Measurements: paper PMC7470827

What was measured:
[1] = target: MBP-tagged Tlg2 SNARE motif (residues 258-327) (Chaetomium thermophilum); test: AUC; sedimentation velocity, 42,000 rpm, 20°C, gel filtration buffer; MBP-Tlg2(258-327) 9 µM, Tlg2(79-200) 72 µM, Tlg2(258-327) 168 µM; c(S) by SEDFIT
Syntaxin-16 N-peptide = Syntaxin-16 N-peptide (UniProt Q8BVI5); conditions: cited from earlier work
[2] = target: Untagged Tlg2 SNARE motif (residues 258-327) (Chaetomium thermophilum); test: AUC; sedimentation velocity, 42,000 rpm, 20°C, gel filtration buffer; MBP-Tlg2(258-327) 9 µM, Tlg2(79-200) 72 µM, Tlg2(258-327) 168 µM; c(S) by SEDFIT

Chain of UniProt Q8BVI5 (Q8BVI5 1-27): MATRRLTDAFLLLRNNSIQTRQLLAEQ

## MBP-tagged Tlg2 SNARE motif (residues 258-327) (domain or fragment)
[1]
  stoichiometry N: 4

## Vps45 (from UniProt P97390)
Syntaxin-16 N-peptide
  Kd: 0.027 µM

## Untagged Tlg2 SNARE motif (residues 258-327) (domain or fragment)
[2]
  stoichiometry N: 4
